{"source": "patent US20220242963A1", "about": "“B-CELL ACTIVATING CD73 ANTIBODIES” (CORVUS PHARMACEUTICALS, INC., priority 2018, published 2022)", "molecules": {"B1": {"name": "CPI-006: humanized CD73 antibody, wherein the light chain is SEQ ID NO:8 and the heavy chain is SEQ ID NO:7; IgG1 Fcγ receptor-deficient (antibody, V domains shown)", "VH": "QVQLVQSGAEVEKPGASVKVSCKASGYTFTSYWITWVRQAPGQGLEWMGDIYPGSGNTNYNEKFKTRVTITADKSTSTAYMELSSLRSEDTAVYYCAKEGGLTTEDYALDYWGQGTLVTV", "VL": "EIVLTQSPATLSLSPGERATLSCRASKNVSTSGYSYMHWYQQKPGQAPRLLIYLASNLESGIPPRFSGSGYGTDFTLTINNIESEDAAYYFCQHSRELPFTFGQGTKVEIK"}}, "key": {"[1]": {"tested_on": "PBMC", "assay": "T cell proliferation and IFN-gamma secretion of healthy donor PBMC cultured with AMP", "format": "cell-based, human", "conditions": "CPI-006 at 500 nM, 3 mM AMP, anti-CD3 and anti-CD28, IL-2; FIGS. 1C-1D", "method": "(§1) FIG. 1A provides a schematic of CD73 structure. […] Each symbol represents an independent donor.\nMDA-MB-231 cells (e.g., available at ATCC® as HTB-26™) were incubated with a human IgG1 isotype control, CPI-006, CPX-016, or adenosine 5′-(α,β-methylene)diphosphate (also known as APCP, which is a small molecule inhibitor of CD73 enzymatic activity), prior to addition of 250 μM of adenosine monophosphate (AMP). Phosphate levels were measured in the cell culture supernatant using the Sensolyte Malachite Green assay kit. Peripheral blood mononuclear cells (PBMC) were isolated from healthy donors and labeled with CellTrace™ Violet (ThermoFisher Scientific) prior to culture with 1 μg/mL anti-CD3 and anti-CD28, 200 units/mL IL-2, 3 mM AMP and indicated treatments (CPI-006 at 500 nM; CPX-016 at 500 nM; human IgG1 isotype control at 890 nM). T cell proliferation was measured by Cell Trace Violet dilution and was defined by gating relative to unstimulated PBMC (FIG. 1C). IFN-gamma production was measured in cell culture supernatants by AlphaLISA (FIG. 1D). Results shown in FIGS. 1B-D illustrate that inhibition of CD73 activity has an agonistic effect on immunomodulatory activity."}, "[2]": {"target": "T1, CD73 (Homo sapiens, UniProt P21589)", "T1 construct": "endogenous in cells; host or cells: Whole blood of cancer patients (CD73+ CD8 T cells)", "T1 sequence (P21589 27-549)": "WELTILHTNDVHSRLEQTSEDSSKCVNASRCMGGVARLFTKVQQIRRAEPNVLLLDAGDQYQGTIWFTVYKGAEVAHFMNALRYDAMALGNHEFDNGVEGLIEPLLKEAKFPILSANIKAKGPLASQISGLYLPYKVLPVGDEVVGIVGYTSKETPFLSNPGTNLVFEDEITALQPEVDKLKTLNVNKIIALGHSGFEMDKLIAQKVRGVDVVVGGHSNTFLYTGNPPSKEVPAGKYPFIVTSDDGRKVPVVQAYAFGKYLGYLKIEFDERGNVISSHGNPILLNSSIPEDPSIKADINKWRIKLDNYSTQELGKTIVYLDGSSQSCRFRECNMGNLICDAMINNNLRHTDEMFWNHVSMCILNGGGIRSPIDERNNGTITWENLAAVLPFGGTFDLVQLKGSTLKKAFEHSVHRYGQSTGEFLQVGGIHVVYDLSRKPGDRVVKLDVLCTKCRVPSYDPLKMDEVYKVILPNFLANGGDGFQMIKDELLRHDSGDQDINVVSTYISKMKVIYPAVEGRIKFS", "assay": "CD73 enzymatic activity in MDA-MB-231 xenograft model", "format": "in vivo", "conditions": "MDA-MB-231 human TNBC xenograft model; FIG. 1F", "from_the_text": "as §1"}, "[3]": {"target": "T1, CD73", "assay": "Phase 1/1B clinical trial: CD73 receptor occupancy in peripheral blood by flow cytometry", "format": "in vivo", "conditions": "for sustained CD73 receptor occupancy in peripheral blood: once every 21 days", "method": "FIGS. 3A-3D show the pharmacokinetics/pharmacodynamics and CD73 receptor occupancy of CPI-006 after a first infusion in human patients. […] The dotted line marks one-hundred percent occupancy CD73 receptor occupancy. […]\nWith reference to Table 1, serum samples were collected from patients treated with CPI-006 alone (i.e., monotherapy) and levels of free CPI-006 were measured by ELISA, as shown in FIG. 3A. Whole blood samples from patients treated with CPI-006 alone were fixed and receptor occupancy was measured by flow cytometry gating on CD73+CD8 T cells, as shown in FIG. 3B. As illustrated in FIGS. 3A-3D, receptor exposure to CPI-006 increases and clearance decreases with increasing doses of CPI-006, and CIP-006 is detectable for 21 days after administration of a single dose of 6 mg/kg or higher. […] Other results from the study are described below and in Table 4. BLQ is below limit of quantification. TBD is to be determined."}, "[4]": {"target": "T1, CD73", "assay": "Occupancy and inhibition of CD73 in a tumor biopsy of a treated colorectal cancer patient", "format": "in vivo", "conditions": "12 mg/kg, retroperitoneal lesion at trough pre-dose 3, FIG. 5", "method": "The tumor biopsy was of a retroperitoneal lesion obtained at trough pre-dose 3.\nA tumor biopsy taken from a colorectal cancer patient treated with CPI-006 was evaluated for inhibition of CD73 enzymatic activity."}, "[5]": {"tested_on": "T cell clones", "assay": "T cell receptor Vb sequencing of peripheral blood (T cell clone frequency)", "format": "in vivo, human", "method": "FIGS. 11A-11C show clonal abundance plots of T cell clones for three patients treated with CP1-006. Sequencing of the Vb region of the T cell receptor was performed to identify the frequency of unique T cell clones in peripheral blood samples collected pre-treatment and on-treatment at 6 weeks of 12 mg/kg CPI-006+ciforadenant (FIG. 11A), 12 mg/kg CPI-006 (FIG. 11B), or 18 mg/kg CPI-006 (FIG. 11C). Expansion of new T cell clones was observed after 6 weeks in 3 of 8 evaluated patients treated with CPI-006.\nImmunomodulatory activity of CPI-006 was evaluated in patients administered CPI-006. […] Further, T cell activation was evaluated upon treatment with various dosages of the monotherapy CPI-006 or a combination therapy of CPI-006 and ciforadenant. Once a T cell clone is activated, the clone can expand and produce clonal copies of the original clone. […] The results further affirm CPI-006 is an immunomodulator of CD73 positive cells."}, "[6]": {"conditions": "pre-dose versus 30 minutes after administration, FIG. 3D"}}, "note": "Several values for one entry are separate records, joined by “and”; a condition that tells them apart may be missing. Equal values may be shown once."}
{"molecule": "B1", "values": [{"measurement": "adenosine-mediated immunosuppression (T-cell proliferation, IFN-gamma secretion)", "setting": "[1]", "value": "relieves adenosine-mediate immunosuppression"}, {"measurement": "CD73 enzymatic activity in tumor xenograft", "setting": "[2]", "value": "blocks CD73 enzymatic activity"}, {"measurement": "sustained CD73 receptor occupancy in peripheral blood", "setting": "[3]; 1 mg/kg and 3 mg/kg doses", "value": "not"}, {"measurement": "CD73 receptor occupancy on peripheral B cells", "setting": "[3]; 3 mg/kg, patients 4-6 (Pancreatic, Pancreatic, Prostate)", "value": "88.12% and 74.57% and 58.19%"}, {"measurement": "sustained CD73 receptor occupancy in peripheral blood", "setting": "[3]; 6 mg/kg and 12 mg/kg doses", "value": "sustained CD73 receptor occupancy"}, {"measurement": "CD73 receptor occupancy on peripheral B cells", "setting": "[3]; 6 mg/kg, patients 7-9 (Colorectal, Prostate, SCHN)", "value": "97.90% and 98.31% and 101.60%"}, {"measurement": "receptor occupancy dose dependence", "setting": "[3]; clinical data, 1, 3, and 6 mg/kg", "value": "dose proportional"}, {"measurement": "CPI-006 binding site on cell surface CD73 (free CD73)", "setting": "[3]; [6]", "value": "occupied"}, {"measurement": "total cell surface CD73", "setting": "[3]; [6]", "value": "remains unchanged"}, {"measurement": "CD73 enzymatic activity in tumor biopsy", "setting": "[4]", "value": "inhibit CD73 enzymatic activity"}, {"measurement": "occupancy of CD73 in tumor biopsy", "setting": "[4]", "value": "binds and saturates CD73"}, {"measurement": "generation of new T cell clones", "setting": "[5]; 12 or 18 mg/kg CPI-006, or 12 mg/kg CPI-006 + ciforadenant, 6 weeks, FIGS. 11A-11C", "value": "new T cell clones were generated"}, {"measurement": "evaluated patients with expansion of new T cell clones", "setting": "[5]; after 6 weeks of treatment, peripheral blood", "value": "3 of 8"}]}
